# Read-outs that look alike come from different tables or passages of the source.
# What was measured:
# [1] = molecular target: biotinylated VEGF165 (UniProt P15692); assay: competition binding ELISA: blocks biotinylated VEGF165 binding to coated VEGFR1-Fc
# [2] = molecular target: human VEGF (human) (UniProt P15692); assay: cell-based or functional assay
# [3] = molecular target: mouse VEGF (mouse) (UniProt Q00731); assay: cell-based or functional assay
# [4] = molecular target: rat VEGF (rat) (UniProt P16612); assay: cell-based or functional assay
# rat VEGF (rat), sequence (P16612 other isoform, or with tags, fused parts or gaps limits assumed): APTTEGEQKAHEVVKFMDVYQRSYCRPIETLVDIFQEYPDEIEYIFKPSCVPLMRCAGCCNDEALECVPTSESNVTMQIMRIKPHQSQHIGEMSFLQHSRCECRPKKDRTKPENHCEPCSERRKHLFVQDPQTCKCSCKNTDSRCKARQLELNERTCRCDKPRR
# [5] = molecular target: biotinylated VEGF165 (UniProt P15692); assay: competition binding ELISA: biotinylated VEGF165 premixed with the binder, then on coated VEGFR1-Fc (blocked partner), OD 450 nm
# [6] = molecular target: mouse VEGF (mouse) (UniProt Q00731); assay: cell-based or functional assay; remark: listed apart in the source
# [7] = molecular target: rat VEGF (rat) (UniProt P16612); assay: cell-based or functional assay; remark: listed apart in the source
# [8] = molecular target: human VEGF (human) (UniProt P15692); assay: cell-based or functional assay; remark: listed apart in the source
# [9] = molecular target: LRP6 on HEK293S cells (human) (UniProt O75581); assay: cell-based or functional assay
# LRP6 on HEK293S cells (human), sequence (O75581 20-1613): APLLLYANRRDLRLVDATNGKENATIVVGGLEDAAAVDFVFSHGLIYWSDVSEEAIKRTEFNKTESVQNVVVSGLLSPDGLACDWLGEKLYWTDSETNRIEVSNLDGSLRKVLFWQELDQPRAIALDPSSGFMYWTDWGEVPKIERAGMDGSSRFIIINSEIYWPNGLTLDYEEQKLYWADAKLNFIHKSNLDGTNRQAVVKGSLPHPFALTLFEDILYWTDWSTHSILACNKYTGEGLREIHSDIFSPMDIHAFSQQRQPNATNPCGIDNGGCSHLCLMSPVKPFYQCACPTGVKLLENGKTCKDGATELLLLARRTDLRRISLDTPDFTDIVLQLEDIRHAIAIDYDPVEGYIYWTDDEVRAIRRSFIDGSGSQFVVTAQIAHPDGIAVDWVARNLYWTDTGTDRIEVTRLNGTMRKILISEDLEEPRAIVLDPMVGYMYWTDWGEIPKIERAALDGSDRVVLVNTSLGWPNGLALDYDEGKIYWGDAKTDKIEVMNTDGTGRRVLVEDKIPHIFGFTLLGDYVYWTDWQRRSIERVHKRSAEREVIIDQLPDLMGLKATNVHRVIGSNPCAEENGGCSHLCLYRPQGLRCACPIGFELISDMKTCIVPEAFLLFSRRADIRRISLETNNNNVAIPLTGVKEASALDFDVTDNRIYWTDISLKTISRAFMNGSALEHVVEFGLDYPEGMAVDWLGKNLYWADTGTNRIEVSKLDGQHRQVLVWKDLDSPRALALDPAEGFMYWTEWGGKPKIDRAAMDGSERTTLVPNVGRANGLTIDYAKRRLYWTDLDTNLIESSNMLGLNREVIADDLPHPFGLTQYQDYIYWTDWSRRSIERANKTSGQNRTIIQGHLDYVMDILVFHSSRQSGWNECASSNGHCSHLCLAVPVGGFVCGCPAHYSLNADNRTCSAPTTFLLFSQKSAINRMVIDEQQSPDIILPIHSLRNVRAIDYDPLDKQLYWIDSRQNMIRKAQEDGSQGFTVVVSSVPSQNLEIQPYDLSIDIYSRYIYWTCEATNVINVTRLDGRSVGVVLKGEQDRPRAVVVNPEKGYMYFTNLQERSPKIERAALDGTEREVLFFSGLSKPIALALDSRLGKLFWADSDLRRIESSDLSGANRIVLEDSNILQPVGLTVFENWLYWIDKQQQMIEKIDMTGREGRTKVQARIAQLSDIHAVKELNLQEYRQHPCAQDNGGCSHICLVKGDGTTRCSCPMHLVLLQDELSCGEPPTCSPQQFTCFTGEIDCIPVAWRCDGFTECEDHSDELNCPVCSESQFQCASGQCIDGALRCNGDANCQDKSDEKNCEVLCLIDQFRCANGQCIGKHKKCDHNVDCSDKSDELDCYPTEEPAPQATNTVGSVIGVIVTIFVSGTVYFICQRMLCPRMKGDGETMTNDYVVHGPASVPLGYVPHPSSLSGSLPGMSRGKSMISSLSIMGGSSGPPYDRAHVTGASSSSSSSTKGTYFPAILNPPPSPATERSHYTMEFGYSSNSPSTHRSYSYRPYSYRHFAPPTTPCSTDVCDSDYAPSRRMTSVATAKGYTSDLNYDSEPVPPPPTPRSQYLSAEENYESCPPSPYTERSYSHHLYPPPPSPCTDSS
# human VEGF (human), sequence (P15692 other isoform, or with tags, fused parts or gaps limits assumed): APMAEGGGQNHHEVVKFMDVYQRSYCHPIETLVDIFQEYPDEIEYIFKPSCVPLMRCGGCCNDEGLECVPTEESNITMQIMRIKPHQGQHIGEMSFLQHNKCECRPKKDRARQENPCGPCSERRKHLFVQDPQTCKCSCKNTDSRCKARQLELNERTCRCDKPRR
# biotinylated VEGF165, sequence (P15692 other isoform, or with tags, fused parts or gaps limits assumed): as above
# mouse VEGF (mouse), sequence (Q00731 other isoform, or with tags, fused parts or gaps limits assumed): as the sequence (P16612 other isoform, or with tags, fused parts or gaps limits assumed) above, with A10S, V14I, V75I counted along it
Substance,IC50 [1],"Inhibitory Activity (IC50, nM) against hVEGF in cell-based assays [2]","Inhibitory activity (IC50, nM) against VEGF in cell-based assays [2]","Inhibitory activity (IC50, nM) against VEGF in cell-based assays [3]","Inhibitory activity (IC50, nM) against VEGF in cell-based assays [4]",IC50 [5],"Inhibitory activity (IC50, nM) against VEGF in cell-based assays [6]","Inhibitory activity (IC50, nM) against VEGF in cell-based assays [7]","Inhibitory activity (IC50, nM) against VEGF in cell-based assays [8]","IC50, inhibition of Wnt1 signaling (luciferase reporter, HEK293S cells transfected by WNT1) [9]"
G6 anti-VEGF antibody,0.25 nM,0.14 nM,0.21 nM,0.12 nM,0.13 nM,0.2 nM,0.19 nM,0.078 nM,,
Lucentis (Fab),,0.68 nM,,,,,,,0.63 nM,
anti-LRP6 inhibitory antibody YW210.09,,,,,,,,,,28 nM
